In assay [1] the target is PE-conjugated HLA-A*02:01/MART1 26-35 heteroclitic multimer (Proimmune) (human). As to the kind of experiment: structural avidity: flow cytometry, graded A2/MART1 multimer on Jurkat76 transfectants without CD8. A general note: A flow cytometer gives signals particle by particle.
For assay [2], the target named is HLA-A*02:01 presenting MART1 27-35 peptide (…) on peptide-pulsed T2 cells (human). Briefly: cell-based or functional assay.
The target in assay [3] is PE-conjugated HLA-A*02:01/MART1 26-35 heteroclitic multimer (Proimmune) (human). Briefly: structural avidity: flow cytometry, graded A2/MART1 multimer on Jurkat76/CD8αβ transfectants.
Assay [4] has as its target MART1 peptide on HLA-A*02:01 (human). As to the kind of experiment: IL-2 ELISPOT; Jurkat76 transfectants without CD8; T2 cells pulsed with graded concentrations of MART1 27-35 peptide; full-length, on cells.
Assay [5] has the same target. As to the kind of experiment: staining with graded concentrations of A2/MART1 multimer; Jurkat76/CD8αβ transfectants; full-length, on cells.
The target is the same in assay [6]. As to the kind of experiment: staining with graded concentrations of A2/MART1 multimer; Jurkat76 transfectants without CD8; full-length, on cells.
Assay [7] has the same target. Briefly: IL-2 ELISPOT; Jurkat76/CD8αβ transfectants; T2 cells pulsed with graded concentrations of MART1 27-35 peptide; full-length, on cells.
For assay [8] the target is unchanged. As to the kind of experiment: staining with graded concentrations of A2/MART1 multimer; Jurkat76 transfectants without CD8; full-length, on cells. As to conditions: heteroclitic peptide, residues not given.
Assay [9] shares this target. Briefly: staining with graded concentrations of A2/MART1 multimer; Jurkat76/CD8αβ transfectants; full-length, on cells. As to conditions: heteroclitic peptide, residues not given.
Assay [10] has as its target T1, WT1 peptide on HLA-A*24:02 (human, heteroclitic peptide as printed; the natural WT1 235-243 residues are not given).
T1 peptide: CYTWNQMNL
Briefly: cytokine release.

The mark [11] stands for this setting: chains Valpha:beta TRBV27 TRBJ1-2 CDR3.
The mark [12] stands for this setting: chains Valpha:beta TRBV27 TRBJ2-7 CDR3.

In general, EC50 refers to the midpoint of the concentration-response curve. The low end stands for a more potent agent, the high end for a less potent agent.

For the molecule A2/MART1-specific TCR, clone DMF5, in [1], the EC50 was 0.03 µg/mL. For the same molecule, in assay [2], the Functional avidity w/CD8 EC50 (IL-2 ELISPOT, peptide-pulsed T2 cells) turned out to be 330 nM; the Functional avidity w/o CD8 EC50 (IL-2 ELISPOT, peptide-pulsed T2 cells) came to 1400 nM; the Functional avidity with CD8 EC50 (IL-2 ELISPOT, peptide-pulsed T2 cells) was 0.102 µg/mL; the Functional avidity without CD8 EC50 (IL-2 ELISPOT, peptide-pulsed T2 cells) came out at 0.363 µg/mL. The molecule further registered an EC50 in assay [3] of 0.02 µg/mL.

For the molecule DMF5 TCR, the EC50 of peptide turned out to be 1400 nM in assay [4] and 330 nM in assay [7]. Further, the EC50 of multimer (structural avidity) in assay [5] was found to be 0.02 µg/mL; in assay [6], 0.03 µg/mL.

B1: Clone 1086 (SIG35α with clone 1086 TCRβ) (protein)
chain 1: QKEVEQNSGPLSVPEGAIASLNCTYSDRGSQSFFWYRQYSGKSPELIMFIYSNGDKEDGRFTAQLNKASQYVSLLIRDSQPSDSATYLCAVSIGFGNVLHCGSGTQVIVLP
chain 2: CASSLHGPGGYTF
Take B1: the EC50 of multimer (structural avidity) in [8] (setting [11]) was found to be 0.04 µg/mL; in assay [9] (setting [11]) it was 0.01 µg/mL.

B2: Clone 788 (SIG35α with clone 788 TCRβ) (protein)
chain 1: B1 chain 1
chain 2: CASGPSYEQYF
B2: the EC50 of multimer (structural avidity) in assay [8] (setting [12]) was 0.05 µg/mL; in assay [9] (setting [12]) it was 0.01 µg/mL.

B3: Clone 523 (SIG35α with clone 523 TCRβ) (protein)
chain 1: B1 chain 1
chain 2: CASGSYEQYF
In the case of B3, in [9] (setting [12]), the EC50 of multimer (structural avidity) was 0.3 µg/mL.

B4: Clone T53 (T53 TCRα with TAK1β) (TCR, V domains shown)
Valpha: EDKVVQSPLSLVVHEGDTVTLNCSYEVTNFRSLLWYKQEKKAPTFLFMLTSSGIEKKSGRLSSILDKKELFSILNITATQTGDSAVYLCAVITGGTSYGKLTFGQGTILTVHP
Vbeta: LAGVTQTPRYLIKTRGQQVTLSCSPISGHRSVSWYQQTPGQGLQFLFEYFSETQRNKGNFPGRFSGRQFSNSRSEMNVSTLELGDSALYLCASSLGWRETYNEQFFGPGTRLTVL
Take B4: the binding result in [10] is “recognises”.

B5: Clone T262 (T262 TCRα with TAK1β) (TCR, V domains shown)
Valpha: EDQVTQSPEALRLQEGESSSLNCSYTVSGLRGLFWYRQDPGKGPEFLFTLYSAGEEKEKERLKATLTKKESFLHITAPKPEDSATYLCAVQALRNNAGNNRKLIWGLGTSLAVNP
Vbeta: B4 Vbeta
Consider B5, for which, in assay [10], the binding result is given as “recognises”.

B6: Clone A262 (A262 TCRα with TAK1β) (TCR, V domains shown)
Valpha: EDKVVQSPLSLVVHEGDTVTLNCSYEVTNFRSLLWYKQEKKAPTFLFMLTSSGIEKKSGRLSSILDKKELFSILNITATQTGDSATYLCAVQNAGGTSYGKLTFGQGTILTVHP
Vbeta: B4 Vbeta
On to B6, for which the binding result in [10] is “recognises”.

B7: Clone T243 (T243 TCRα with TAK1β) (TCR, V domains shown)
Valpha: EDKVVQSPLSLVVHEGDTVTLNCSYEVTNFRSLLWYKQEKKAPTFLFMLTSSGIEKKSGRLSSILDKKELFSILNITATQTGDSAVYLCAVLTQTGANNLFFGTGTRLTVIP
Vbeta: B4 Vbeta
Regarding B7, in assay [10], the binding result is recorded as “recognises”.

These data come from patent publication US20160340403A1 (published 2016).
